Assay results published in patent US20160304570A1.

What was measured:
Experiment in all cases: cell-based or functional assay
[1] = molecular target: human Nav1.5 voltage-gated sodium channel (human) (UniProt Q14524)
[2] = molecular target: human Nav1.3 voltage-gated sodium channel (human) (UniProt Q9NY46)
[3] = molecular target: human Nav1.7 voltage-gated sodium channel (human) (UniProt Q15858)
[4] = molecular target: human voltage-gated sodium channel Nav1.5 (human) (UniProt Q14524)
[5] = molecular target: human voltage-gated sodium channel Nav1.7 (human) (UniProt Q15858)
[6] = molecular target: human voltage-gated sodium channel Nav1.3 (human) (UniProt Q9NY46)
[7] = molecular target: human voltage-gated sodium channel Nav1.5 (human) (UniProt Q14524); remark: listed apart in the source
[8] = molecular target: human voltage-gated sodium channel Nav1.7 (human) (UniProt Q15858); remark: listed apart in the source
[9] = molecular target: human voltage-gated sodium channel Nav1.4 (human) (UniProt P35499)
human voltage-gated sodium channel Nav1.4 (human), sequence (P35499 whole entry): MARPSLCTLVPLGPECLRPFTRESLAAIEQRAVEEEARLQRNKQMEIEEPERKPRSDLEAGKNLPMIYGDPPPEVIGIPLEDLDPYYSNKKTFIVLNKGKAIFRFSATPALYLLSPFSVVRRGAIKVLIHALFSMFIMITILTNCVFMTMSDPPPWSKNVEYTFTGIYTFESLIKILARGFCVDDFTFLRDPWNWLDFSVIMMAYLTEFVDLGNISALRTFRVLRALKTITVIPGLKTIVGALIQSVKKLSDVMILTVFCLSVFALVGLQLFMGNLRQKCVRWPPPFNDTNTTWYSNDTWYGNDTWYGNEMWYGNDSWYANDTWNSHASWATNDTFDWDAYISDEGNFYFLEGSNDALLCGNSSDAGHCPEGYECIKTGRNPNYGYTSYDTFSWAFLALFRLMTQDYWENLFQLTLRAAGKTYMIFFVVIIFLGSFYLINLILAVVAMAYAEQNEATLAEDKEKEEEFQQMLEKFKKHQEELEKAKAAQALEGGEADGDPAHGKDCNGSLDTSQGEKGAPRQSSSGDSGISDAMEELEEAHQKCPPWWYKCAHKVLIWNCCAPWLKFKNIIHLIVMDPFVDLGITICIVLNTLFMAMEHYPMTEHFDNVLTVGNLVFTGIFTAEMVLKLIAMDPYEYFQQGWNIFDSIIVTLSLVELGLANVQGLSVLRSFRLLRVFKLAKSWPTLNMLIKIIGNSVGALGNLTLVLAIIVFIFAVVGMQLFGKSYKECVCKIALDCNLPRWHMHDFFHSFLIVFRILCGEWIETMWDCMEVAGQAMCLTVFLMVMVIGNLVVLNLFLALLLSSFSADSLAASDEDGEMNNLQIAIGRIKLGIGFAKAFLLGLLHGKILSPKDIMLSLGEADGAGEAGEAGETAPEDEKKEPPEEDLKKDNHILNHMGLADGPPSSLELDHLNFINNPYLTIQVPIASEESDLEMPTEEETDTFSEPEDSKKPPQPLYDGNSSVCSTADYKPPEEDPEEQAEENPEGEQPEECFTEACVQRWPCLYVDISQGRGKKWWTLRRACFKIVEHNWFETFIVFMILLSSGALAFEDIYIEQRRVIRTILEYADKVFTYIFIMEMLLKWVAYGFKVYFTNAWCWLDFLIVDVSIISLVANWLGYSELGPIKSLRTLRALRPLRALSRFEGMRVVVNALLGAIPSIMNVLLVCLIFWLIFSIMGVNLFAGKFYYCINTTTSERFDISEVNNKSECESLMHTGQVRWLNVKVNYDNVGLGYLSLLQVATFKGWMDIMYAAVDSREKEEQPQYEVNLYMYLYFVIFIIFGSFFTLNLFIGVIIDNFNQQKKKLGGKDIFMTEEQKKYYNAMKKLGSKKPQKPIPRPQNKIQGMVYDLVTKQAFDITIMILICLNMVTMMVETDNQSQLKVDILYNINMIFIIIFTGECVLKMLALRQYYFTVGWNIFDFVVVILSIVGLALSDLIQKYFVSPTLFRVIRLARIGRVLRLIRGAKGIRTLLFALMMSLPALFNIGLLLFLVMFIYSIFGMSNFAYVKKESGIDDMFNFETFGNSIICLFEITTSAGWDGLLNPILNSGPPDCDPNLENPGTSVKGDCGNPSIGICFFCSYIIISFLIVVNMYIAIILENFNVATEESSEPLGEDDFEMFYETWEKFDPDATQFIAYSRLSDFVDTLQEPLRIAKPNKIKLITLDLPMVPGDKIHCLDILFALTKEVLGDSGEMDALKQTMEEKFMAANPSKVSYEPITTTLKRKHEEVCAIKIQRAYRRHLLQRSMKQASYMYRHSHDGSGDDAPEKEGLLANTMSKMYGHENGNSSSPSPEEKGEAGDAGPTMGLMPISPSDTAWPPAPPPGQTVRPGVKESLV

human voltage-gated sodium channel Nav1.7 (human), sequence (Q15858 whole entry): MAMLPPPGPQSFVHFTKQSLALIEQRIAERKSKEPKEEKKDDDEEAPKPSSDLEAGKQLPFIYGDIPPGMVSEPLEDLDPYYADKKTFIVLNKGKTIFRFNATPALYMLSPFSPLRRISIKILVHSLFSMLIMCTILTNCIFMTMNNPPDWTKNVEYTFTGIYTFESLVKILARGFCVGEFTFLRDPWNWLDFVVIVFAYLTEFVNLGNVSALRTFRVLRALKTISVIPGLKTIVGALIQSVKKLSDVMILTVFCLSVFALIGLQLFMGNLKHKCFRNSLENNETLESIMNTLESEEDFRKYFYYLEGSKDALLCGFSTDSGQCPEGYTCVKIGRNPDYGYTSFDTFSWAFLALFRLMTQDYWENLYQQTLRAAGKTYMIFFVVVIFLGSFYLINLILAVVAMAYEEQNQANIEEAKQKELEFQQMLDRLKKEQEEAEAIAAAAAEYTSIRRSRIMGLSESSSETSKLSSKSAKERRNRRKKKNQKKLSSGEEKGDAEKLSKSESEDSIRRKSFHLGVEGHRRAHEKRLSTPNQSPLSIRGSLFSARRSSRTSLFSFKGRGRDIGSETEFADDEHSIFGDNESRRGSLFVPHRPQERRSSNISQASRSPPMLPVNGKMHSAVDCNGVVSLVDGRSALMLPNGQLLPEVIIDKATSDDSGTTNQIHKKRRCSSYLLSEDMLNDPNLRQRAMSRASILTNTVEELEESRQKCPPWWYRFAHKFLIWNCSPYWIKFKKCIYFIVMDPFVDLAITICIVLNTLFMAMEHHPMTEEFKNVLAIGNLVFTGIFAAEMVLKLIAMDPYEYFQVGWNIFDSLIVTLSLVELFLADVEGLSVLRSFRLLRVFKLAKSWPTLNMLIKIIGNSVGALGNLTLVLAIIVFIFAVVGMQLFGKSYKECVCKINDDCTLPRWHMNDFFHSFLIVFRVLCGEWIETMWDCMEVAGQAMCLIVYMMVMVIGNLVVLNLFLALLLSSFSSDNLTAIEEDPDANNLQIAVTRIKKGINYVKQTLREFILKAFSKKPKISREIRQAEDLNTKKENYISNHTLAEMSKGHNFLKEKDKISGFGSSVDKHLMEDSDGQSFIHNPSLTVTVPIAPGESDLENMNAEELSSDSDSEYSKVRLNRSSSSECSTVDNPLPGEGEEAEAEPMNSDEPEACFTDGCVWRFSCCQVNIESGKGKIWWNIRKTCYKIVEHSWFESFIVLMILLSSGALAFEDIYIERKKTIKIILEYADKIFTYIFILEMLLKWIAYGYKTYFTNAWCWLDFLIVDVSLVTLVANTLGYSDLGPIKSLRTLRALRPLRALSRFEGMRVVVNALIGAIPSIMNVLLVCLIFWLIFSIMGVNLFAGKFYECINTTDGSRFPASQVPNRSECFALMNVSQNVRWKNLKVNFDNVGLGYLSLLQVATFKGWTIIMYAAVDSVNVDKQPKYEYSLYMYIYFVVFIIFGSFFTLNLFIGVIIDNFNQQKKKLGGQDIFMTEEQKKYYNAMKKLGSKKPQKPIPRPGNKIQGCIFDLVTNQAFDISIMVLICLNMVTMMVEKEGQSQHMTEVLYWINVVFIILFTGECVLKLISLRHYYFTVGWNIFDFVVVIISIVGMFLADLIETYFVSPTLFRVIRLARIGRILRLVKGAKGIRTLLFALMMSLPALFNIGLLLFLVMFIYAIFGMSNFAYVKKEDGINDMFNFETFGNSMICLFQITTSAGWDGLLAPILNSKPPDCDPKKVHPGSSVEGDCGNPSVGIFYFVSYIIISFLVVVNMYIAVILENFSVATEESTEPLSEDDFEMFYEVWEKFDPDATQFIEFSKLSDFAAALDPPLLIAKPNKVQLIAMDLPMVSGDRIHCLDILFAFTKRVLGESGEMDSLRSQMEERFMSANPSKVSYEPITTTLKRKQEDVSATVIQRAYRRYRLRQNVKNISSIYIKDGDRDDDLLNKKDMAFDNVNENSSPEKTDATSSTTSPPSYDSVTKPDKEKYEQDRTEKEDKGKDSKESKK
human Nav1.7 voltage-gated sodium channel (human), sequence (Q15858 whole entry): as above

Question: “4-Pen-[2-Abu5,13;Leu6;Arg28]GpTx-1(1-34) (peptide)” was tested. Which IWQ Use Nav1.5 IC50 (IonWorks Quattro electrophysiology) [1] did it give?
Answer: Its IWQ Use Nav1.5 IC50 (IonWorks Quattro electrophysiology) is 36.8 µM.

Question: What about the IWQ Use Nav1.3 IC50 (IonWorks Quattro electrophysiology) [2] of the same substance?
Answer: The IWQ Use Nav1.3 IC50 (IonWorks Quattro electrophysiology) was 0.9 µM.

Question: What about the IWQ Use Nav1.7 IC50 (IonWorks Quattro electrophysiology) [3] of the same substance?
Answer: The IWQ Use Nav1.7 IC50 (IonWorks Quattro electrophysiology) was 0.54 µM.

Question: What about the Nav1.5 Use IC50 (µM), electrophysiology by PatchXpress [4] of the same substance?
Answer: Its Nav1.5 Use IC50 (µM), electrophysiology by PatchXpress is over 10 µM.

Question: And the Nav1.7 Use IC50 (µM), electrophysiology by PatchXpress [5]?
Answer: The Nav1.7 Use IC50 (µM), electrophysiology by PatchXpress was 0.003 µM.

Question: How did the IWQ Use Nav1.3 IC50 (IonWorks Quattro electrophysiology) [6] turn out when “4-Pen-[Ala5;Phe6;2-Abu13;Arg28]GpTx-1(1-34) (peptide)” was run?
Answer: The IWQ Use Nav1.3 IC50 (IonWorks Quattro electrophysiology) was 0.26 µM.

Question: And the IWQ Use Nav1.5 IC50 (IonWorks Quattro electrophysiology) [7]?
Answer: Its IWQ Use Nav1.5 IC50 (IonWorks Quattro electrophysiology) is 44.4 µM.

Question: What about the IWQ Use Nav1.7 IC50 (IonWorks Quattro electrophysiology) [8] of the same substance?
Answer: Its IWQ Use Nav1.7 IC50 (IonWorks Quattro electrophysiology) is 0.18 µM.

Question: What about the Nav1.5 Use IC50 (µM), electrophysiology by PatchXpress [4] of the same substance?
Answer: The Nav1.5 Use IC50 (µM), electrophysiology by PatchXpress was over 10 µM.

Question: And the Nav1.7 Use IC50 (µM), electrophysiology by PatchXpress [5]?
Answer: Its Nav1.7 Use IC50 (µM), electrophysiology by PatchXpress is 0.004 µM.

Question: Which results are given for “4-Pen-[Nva5;Leu6;2-Abu13;Arg28]GpTx-1(1-34) (peptide)”?
Answer: IWQ Use Nav1.3 IC50 (IonWorks Quattro electrophysiology) [6]: 0.23 µM; IWQ Use Nav1.5 IC50 (IonWorks Quattro electrophysiology) [7]: 46.2 µM; IWQ Use Nav1.7 IC50 (IonWorks Quattro electrophysiology) [8]: 0.1 µM

Question: With “((2-Hydroxyethyl)thio)acetamide-NPEG11-triazole-[2-Abu5,13;Leu6;Arg28]GpTx-1(1-34) (peptide)” as the substance, how does the Nav1.5 Use IC50 (PatchXpress electrophysiology, inhibition of sodium current) [4] read?
Answer: The Nav1.5 Use IC50 (PatchXpress electrophysiology, inhibition of sodium current) was over 10 µM.

Question: And the Nav1.7 Use IC50 (PatchXpress electrophysiology, inhibition of sodium current) [5]?
Answer: The Nav1.7 Use IC50 (PatchXpress electrophysiology, inhibition of sodium current) was 0.087 µM.

Question: What about the Nav1.4 Use IC50 (PatchXpress electrophysiology, inhibition of sodium current) [9] of the same substance?
Answer: Its Nav1.4 Use IC50 (PatchXpress electrophysiology, inhibition of sodium current) is over 10 µM.

Question: How did the Nav1.5 Use IC50 (µM), PatchXpress electrophysiology [4] turn out when “Biotin-Ahx-[2-Abu5,13;Leu6;Arg28]GpTx-1(1-34) (peptide)” was run?
Answer: Its Nav1.5 Use IC50 (µM), PatchXpress electrophysiology is over 10 µM.

Question: What about the Nav1.7 Use IC50 (µM), PatchXpress electrophysiology [5] of the same substance?
Answer: Its Nav1.7 Use IC50 (µM), PatchXpress electrophysiology is 0.011 µM.

Question: What about the Nav1.4 Use IC50 (µM), PatchXpress electrophysiology [9] of the same substance?
Answer: Its Nav1.4 Use IC50 (µM), PatchXpress electrophysiology is 27.3 µM.

Question: For “[2-Abu5,Leu6,K(ethyl-triazole-PEG11-((2-hydroxyethyl)thio)acetamide)13,Arg28]GpTx-1(1-34) (peptide)”, which Nav1.5 Use IC50 (PatchXpress electrophysiology, inhibition of sodium current) [4] is on record?
Answer: Its Nav1.5 Use IC50 (PatchXpress electrophysiology, inhibition of sodium current) is over 10 µM.

Question: What about the Nav1.7 Use IC50 (PatchXpress electrophysiology, inhibition of sodium current) [5] of the same substance?
Answer: The Nav1.7 Use IC50 (PatchXpress electrophysiology, inhibition of sodium current) was 0.018 µM.

Question: What about the Nav1.4 Use IC50 (PatchXpress electrophysiology, inhibition of sodium current) [9] of the same substance?
Answer: The Nav1.4 Use IC50 (PatchXpress electrophysiology, inhibition of sodium current) was 9.88 µM.

Question: “[2-Abu5;Leu6;K(4-Pen)13;Arg28]GpTx-1(1-34) (peptide)” was tested. Which IWQ Use Nav1.5 IC50 (IonWorks Quattro electrophysiology) [1] did it give?
Answer: The IWQ Use Nav1.5 IC50 (IonWorks Quattro electrophysiology) was 39.7 µM.

Question: And the IWQ Use Nav1.3 IC50 (IonWorks Quattro electrophysiology) [2]?
Answer: The IWQ Use Nav1.3 IC50 (IonWorks Quattro electrophysiology) was 0.81 µM.

Question: And the IWQ Use Nav1.7 IC50 (IonWorks Quattro electrophysiology) [3]?
Answer: The IWQ Use Nav1.7 IC50 (IonWorks Quattro electrophysiology) was 0.55 µM.

Question: What about the Nav1.5 Use IC50 (µM), electrophysiology by PatchXpress [4] of the same substance?
Answer: Its Nav1.5 Use IC50 (µM), electrophysiology by PatchXpress is over 10 µM.

Question: And the Nav1.7 Use IC50 (µM), electrophysiology by PatchXpress [5]?
Answer: Its Nav1.7 Use IC50 (µM), electrophysiology by PatchXpress is 0.002 µM.

Question: “[Ala5;Leu6,26;Pra12;Arg28]GpTx-1(1-34) (peptide)” was tested. Which IWQ Use Nav1.5 IC50 (IonWorks Quattro electrophysiology) [1] did it give?
Answer: The IWQ Use Nav1.5 IC50 (IonWorks Quattro electrophysiology) was over 50 µM.

Question: What about the IWQ Use Nav1.3 IC50 (IonWorks Quattro electrophysiology) [2] of the same substance?
Answer: Its IWQ Use Nav1.3 IC50 (IonWorks Quattro electrophysiology) is 0.54 µM.

Question: What about the IWQ Use Nav1.7 IC50 (IonWorks Quattro electrophysiology) [3] of the same substance?
Answer: The IWQ Use Nav1.7 IC50 (IonWorks Quattro electrophysiology) was 0.26 µM.

Question: With “[Ala5;Leu6,26;Pra13;Arg28]GpTx-1(1-34) (peptide)” as the substance, how does the IWQ Use Nav1.5 IC50 (IonWorks Quattro electrophysiology) [1] read?
Answer: Its IWQ Use Nav1.5 IC50 (IonWorks Quattro electrophysiology) is 36.4 µM.

Question: And the IWQ Use Nav1.3 IC50 (IonWorks Quattro electrophysiology) [2]?
Answer: Its IWQ Use Nav1.3 IC50 (IonWorks Quattro electrophysiology) is 0.48 µM.

Question: What about the IWQ Use Nav1.7 IC50 (IonWorks Quattro electrophysiology) [3] of the same substance?
Answer: Its IWQ Use Nav1.7 IC50 (IonWorks Quattro electrophysiology) is 0.22 µM.

Question: And the Nav1.5 Use IC50 (µM), electrophysiology by PatchXpress [4]?
Answer: The Nav1.5 Use IC50 (µM), electrophysiology by PatchXpress was over 10 µM.

Question: And the Nav1.7 Use IC50 (µM), electrophysiology by PatchXpress [5]?
Answer: Its Nav1.7 Use IC50 (µM), electrophysiology by PatchXpress is 0.009 µM.

Question: With “[Ala5;Phe6,13;Arg28]GpTx-1(1-34)-FreeAcid (peptide)” as the substance, how does the IWQ Use Nav1.3 IC50 [6] read?
Answer: The IWQ Use Nav1.3 IC50 was 1200 nM.

Question: Which IWQ Use Nav1.3 IC50 [6] does the source give for “[Ala5;Phe6;Arg13,28]GpTx-1(1-34)-FreeAcid (peptide)” here?
Answer: Its IWQ Use Nav1.3 IC50 is 600 nM.

Question: What about the IWQ Use Nav1.7 IC50 [8] of the same substance?
Answer: The IWQ Use Nav1.7 IC50 was 4500 nM.

Question: “[Ala5;Phe6;Asp13;Arg28]GpTx-1(1-34)-FreeAcid (peptide)” was tested. Which IWQ Use Nav1.3 IC50 [6] did it give?
Answer: Its IWQ Use Nav1.3 IC50 is 2300 nM.

Question: For “[Ala5;Phe6;Gln13;Arg28]GpTx-1(1-34)-FreeAcid (peptide)”, which IWQ Use Nav1.3 IC50 [6] is on record?
Answer: The IWQ Use Nav1.3 IC50 was 1700 nM.

Question: Which Nav1.5 Use IC50 (PatchXpress electrophysiology, inhibition of sodium current) [4] does the source give for “[Ala5;Phe6;Glu10;Atz(PEG3-((2-hydroxyethyl)thio)acetamide)13;Leu26;Arg28]GpTx-1(1-34) (peptide)” here?
Answer: Its Nav1.5 Use IC50 (PatchXpress electrophysiology, inhibition of sodium current) is over 10 µM.

Question: And the Nav1.7 Use IC50 (PatchXpress electrophysiology, inhibition of sodium current) [5]?
Answer: The Nav1.7 Use IC50 (PatchXpress electrophysiology, inhibition of sodium current) was 0.013 µM.

Question: What about the Nav1.4 Use IC50 (PatchXpress electrophysiology, inhibition of sodium current) [9] of the same substance?
Answer: The Nav1.4 Use IC50 (PatchXpress electrophysiology, inhibition of sodium current) was 5.95 µM.

Question: For “[Ala5;Phe6;Glu10;Atz(PEG11-((2-hydroxyethyl)thio)acetamide)13;Leu26;Arg28]GpTx-1(1-34) (peptide)”, which Nav1.5 Use IC50 (PatchXpress electrophysiology, inhibition of sodium current) [4] is on record?
Answer: Its Nav1.5 Use IC50 (PatchXpress electrophysiology, inhibition of sodium current) is over 10 µM.

Question: And the Nav1.7 Use IC50 (PatchXpress electrophysiology, inhibition of sodium current) [5]?
Answer: The Nav1.7 Use IC50 (PatchXpress electrophysiology, inhibition of sodium current) was 0.021 µM.

Question: And the Nav1.4 Use IC50 (PatchXpress electrophysiology, inhibition of sodium current) [9]?
Answer: The Nav1.4 Use IC50 (PatchXpress electrophysiology, inhibition of sodium current) was over 10 µM.

Question: Which Nav1.5 Use IC50 (µM), PatchXpress electrophysiology [4] does the source give for “[Ala5;Phe6;Glu10;K(Biotin)13;Leu26;Arg28]GpTx-1(1-34) (peptide)” here?
Answer: The Nav1.5 Use IC50 (µM), PatchXpress electrophysiology was over 10 µM.

Question: What about the Nav1.7 Use IC50 (µM), PatchXpress electrophysiology [5] of the same substance?
Answer: Its Nav1.7 Use IC50 (µM), PatchXpress electrophysiology is 0.015 µM.

Question: And the Nav1.4 Use IC50 (µM), PatchXpress electrophysiology [9]?
Answer: The Nav1.4 Use IC50 (µM), PatchXpress electrophysiology was 7.13 µM.

Question: With “[Ala5;Phe6;Glu10;Pra13;Leu26;Arg28]GpTx-1(1-34) (peptide)” as the substance, how does the IWQ Use Nav1.5 IC50 (IonWorks Quattro electrophysiology) [1] read?
Answer: The IWQ Use Nav1.5 IC50 (IonWorks Quattro electrophysiology) was 32.2 µM.

Question: And the IWQ Use Nav1.3 IC50 (IonWorks Quattro electrophysiology) [2]?
Answer: Its IWQ Use Nav1.3 IC50 (IonWorks Quattro electrophysiology) is 0.56 µM.

Question: And the IWQ Use Nav1.7 IC50 (IonWorks Quattro electrophysiology) [3]?
Answer: Its IWQ Use Nav1.7 IC50 (IonWorks Quattro electrophysiology) is 0.54 µM.

Question: And the Nav1.5 Use IC50 (µM), electrophysiology by PatchXpress [4]?
Answer: Its Nav1.5 Use IC50 (µM), electrophysiology by PatchXpress is 15.3 µM.

Question: And the Nav1.7 Use IC50 (µM), electrophysiology by PatchXpress [5]?
Answer: The Nav1.7 Use IC50 (µM), electrophysiology by PatchXpress was 0.012 µM.

Question: How did the IWQ Use Nav1.3 IC50 [6] turn out when “[Ala5;Phe6;Glu13;Arg28]GpTx-1(1-34)-FreeAcid (peptide)” was run?
Answer: The IWQ Use Nav1.3 IC50 was 1900 nM.

Question: “[Ala5;Phe6;Gly13;Arg28]GpTx-1(1-34)-FreeAcid (peptide)” was tested. Which IWQ Use Nav1.3 IC50 [6] did it give?
Answer: Its IWQ Use Nav1.3 IC50 is 1500 nM.
